For experiment [1], the target named is T1, mouse FcγRIV (mouse).
T1 construct: Bought soluble receptor; also called mFcgRIV; mFcgR IV
The experiment in a line: SPR (Biacore), antibody captured on Protein L, mouse FcγR as analyte, pH 7.4, 25 C (method of Example 4, RU). (In general: SPR reads the build-up and loss of mass on a sensor chip optically.)

Experiment [2] has as its target T1, mouse FcγRIV. The experiment in a line: SPR (Biacore), antibody captured on Protein L, mouse FcγR as analyte, pH 7.4, 25 C.
For experiment [3], the target named is T2, human FcγRIIIa(F) (human, UniProt P08637 17-208, limits assumed).
T2 construct: also called hFcgRIIIa(F); hFcgRIIIa
The experiment can be described thus: SPR (Biacore), antibody captured on Protein L, human FcγR as analyte, pH 7.4, 25 C.

In experiment [4] the target is T2, human FcγRIIIa(F). Described as above. This is another data set of the same source.
In experiment [5] the target is T3, human FcRn (soluble human FcRn complexed with β2-microglobulin) (human, UniProt P61769 21-119).
T3 construct: also called hFcRn
The experiment can be described thus: Biacore SPR, pH 7.0, 25 C; antibody captured by Protein L, human FcRn as analyte.

For experiment [6], the target named is T4, human FcRn (human).
T4 construct: Soluble human FcRn complexed with β2-microglobulin; also called hFcRn; soluble human FcRn complexed with β2-microglobulin
The experiment can be described thus: SPR (Biacore), antibody captured by Protein L, human FcRn as analyte, pH 7.0.

Experiment [7] deals with T5, human FcRn (human).
T5 construct: Soluble human FcRn complexed with beta2-microglobulin; also called hFcRn; soluble human FcRn complexed with β2-microglobulin
The experiment in a line: SPR (Biacore), pH 7.0, 25 C; antibody captured on Protein L, human FcRn injected.

The target in experiment [8] is T4, human FcRn. The experiment in a line: SPR (Biacore), antibody captured by Protein L, human FcRn as analyte, pH 7.0. The source holds these as a separate data set.
The target of experiment [9] is T5, human FcRn. The experiment in a line: SPR (Biacore), pH 7.0, 25 C; antibody captured on Protein L, human FcRn injected. The source holds these as a separate data set.
Experiment [10] has as its target T4, human FcRn. The experiment in a line: SPR (Biacore), antibody captured by Protein L, human FcRn as analyte, pH 7.0. The source holds these as a separate data set.
Experiment [11] concerns the target T6, human FcRn (soluble human FcRn complexed with beta2-microglobulin) (human, UniProt P61769 21-119).
T6 construct: also called hFcRn
The experiment can be described thus: SPR (Biacore), pH 7.0, 25 C, antibody captured by Protein L, human FcRn as analyte.

For experiment [12], the target named is T7, human FcRn (human).
T7 construct: also called hFcRn; soluble human FcRn complexed with β2-microglobulin
The experiment is described as above.

Experiment [13] deals with T8, human FcγRIIIa(F) (human, UniProt P08637 17-208, limits assumed).
T8 construct: also called FcgRIIIaF; hFcgRIIIa(F)
The experiment can be described thus: SPR (Biacore T100), antibody captured by Protein A, FcγR as analyte, HBS-EP+, 25°C, 1:1 Langmuir global fit.

For experiment [14], the target named is T8, human FcγRIIIa(F). The experiment in a line: SPR (Biacore T100), ratio of the KD values of Table 24, reference IgG1 (IL6R-G1d/IL6R-L).
The target in experiment [15] is T8, human FcγRIIIa(F). The experiment in a line: SPR (Biacore T100), antibody captured by Protein A, FcγR as analyte, 25°C; weak binding, KD calculated by Equation 5 (1:1 binding model).

Where a chain is given by its changes, count along the chain named. Names may count otherwise. Like-named read-outs stand apart in the source and are kept apart here.

T1 sequence (A0A0B4J1G0 21-203): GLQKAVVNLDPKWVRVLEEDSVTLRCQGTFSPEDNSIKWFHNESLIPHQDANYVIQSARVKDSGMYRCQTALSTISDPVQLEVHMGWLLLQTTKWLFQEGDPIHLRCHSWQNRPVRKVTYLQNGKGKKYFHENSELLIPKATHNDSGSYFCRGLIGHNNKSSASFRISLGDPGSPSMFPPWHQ
T3 sequence (chain, as listed by the source limits assumed, chain 1 of 2): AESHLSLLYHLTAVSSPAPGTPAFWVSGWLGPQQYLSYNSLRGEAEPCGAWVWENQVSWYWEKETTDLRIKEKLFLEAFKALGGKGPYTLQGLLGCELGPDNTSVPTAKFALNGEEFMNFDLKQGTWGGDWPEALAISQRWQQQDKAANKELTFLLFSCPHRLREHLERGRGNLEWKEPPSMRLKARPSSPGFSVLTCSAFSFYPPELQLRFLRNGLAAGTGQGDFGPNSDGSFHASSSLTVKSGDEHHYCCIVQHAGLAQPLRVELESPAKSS
T3 sequence (P61769 21-119 limits assumed, chain 2 of 2): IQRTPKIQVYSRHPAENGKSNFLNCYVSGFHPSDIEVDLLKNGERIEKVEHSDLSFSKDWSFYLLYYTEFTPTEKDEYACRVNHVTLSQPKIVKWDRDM
T6 sequence (chain, as listed by the source limits assumed, chain 1 of 2): as the sequence (chain, as listed by the source limits assumed, chain 1 of 2) above
T6 sequence (P61769 21-119 limits assumed, chain 2 of 2): as the sequence (P61769 21-119 limits assumed, chain 2 of 2) above

B1: antibody with VH3-IgG1-F947 heavy chain and L(WT)-CK light chain (antibody)
heavy: QVQLQESGPGLVKPSETLSLTCAVSGHSISHDHAWSWVRQPPGEGLEWIGFISYSGITNYNPSLQGRVTISRDNSKNTLYLQMNSLRAEDTAVYYCARSLARTTAMDYWGEGTLVTVSSASTKGPSVFPLAPSSKSTSGGTAALGCLVKDYFPEPVTVSWNSGALTSGVHTFPAVLQSSGLYSLSSVVTVPSSSLGTQTYICNVNHKPSNTKVDKKVEPKSCDKTHTCPPCPAPELLGGPSVFLFPPKPKDVLYISRTPEVTCVVVDVSHEDPEVKFNWYVDGVEVHNAKTKPREEQYNSTYRVVSVLQPLHADWLNGKEYKCKVSNKALPAPIEKTISKAKGQPREPQVYTLPPSRDELTKNQVSLTCLVKGFYPSDIAVEWESNGQPENNYKTTPPVLDSDGSFFLYSKLTVDKSRWQQGNVFSCSVMHEALHYHVTQKSLSLSP
light: not shown
notes: copies: 2 + 2
As for B1, the “BINDING AMOUNT” value in the experiment with mouse FcγRIV [1] worked out at 279. The “BINDING AMOUNT (RU)” value with mouse FcγRIV [2] was 242 RU.

B2: VH3/L(WT)-IgG1-F698 (antibody, name in EU numbering)
heavy: B1 heavy with V252T, N288E, P310V, V438Y
light: not shown
notes: The positions are EU numbering, not positions on the entry; copies: 2 + 2
Take B2: the “BINDING AMOUNT (RU)” value in the experiment with human FcγRIIIa(F) [3] and with human FcγRIIIa(F) [4] was 55.9 RU each time.

B3: IgG1-F185 (antibody, name in EU numbering)
heavy: B1 heavy with V252T, Y254W, Q309T, P310V, A313Q, I334V, V438Y
light: not shown
notes: VH3-IgG1 Fc variant; EU numbering
Take B3: the Kd (commonly the free concentration of one partner at which half of the binding sites on the other are occupied at equilibrium, for simple one-to-one binding) in experiment [5] was 260 nM.

B4: IgG1-F1335 (antibody, name in EU numbering)
heavy: B1 heavy with L237R, G238R, S241K, V252T, S256T, Q309T, P310V, A313Q, Q440K, S442D
light: not shown
notes: light chain L(WT)-CK; copies: 2 + 2
B4: the Kd with human FcRn [6] worked out at 87.8 nM.

B5: antibody with VH3-IgG1-F1326 heavy chain and L(WT)-CK light chain (antibody)
heavy: B1 heavy with L236A, L237A
light: not shown
notes: copies: 2 + 2
Consider B5, for which the “BINDING AMOUNT” value with mouse FcγRIV [1] was found to be 85.6.

B6: IgG1-F755 (antibody)
heavy: B1 heavy with P240D, V252S, Q309T, P310V, A313Q, V438Y
light: not shown
notes: Substitutions by EU numbering; copies: 2 + 2
As to B6, binding with human FcRn [7] was put at a Kd of 350 nM.

B7: VH3/L(WT)-IgG1-F699 (antibody, name in EU numbering)
heavy: B1 heavy with S241K, V252T, N288E, P310V, V438Y
light: not shown
notes: as for B2
On to B7, for which the “BINDING AMOUNT (RU)” value with human FcγRIIIa(F) [4] was -2 RU.

B8: IgG1-F1364 (antibody, name in EU numbering)
heavy: B1 heavy with L237R, S241K, V252T, T258E, Q309T, P310V, A313Q, V438F, Q440K, S442E
light: not shown
notes: as for B4
B8 displayed a Kd in the experiment with human FcRn [8] of 74.9 nM.

B9: IgG1-F802 (antibody)
heavy: B1 heavy with V252T, Q309T, P310V, A313Q, N317V, V438Y
light: not shown
notes: as for B6
Consider B9, for which the affinity in the experiment with human FcRn [9], expressed as Kd, was 330 nM.

B10: IgG1-F791 (antibody)
heavy: B1 heavy with V252T, Q309T, P310V, A313Q, N317F, V438Y
light: not shown
notes: as for B6
B10 came in with a Kd in the experiment with human FcRn [9] of 440 nM.

B11: VH3/L(WT)-IgG1-F763 (antibody, name in EU numbering)
heavy: B1 heavy with L237R, S241K, V252T, N288E, P310V, V438Y
light: not shown
notes: as for B2
B11: in the experiment with human FcγRIIIa(F) [3], the “BINDING AMOUNT (RU)” value was -2.9 RU.

B12: IgG1-F770 (antibody)
heavy: B1 heavy with V252T, T258A, Q309T, P310V, A313Q, V438Y
light: not shown
notes: as for B6
In the case of B12, the Kd with human FcRn [7] worked out at 300 nM.

B13: IgG1-F1339 (antibody, name in EU numbering)
heavy: QVQLQESGPGLVKPSETLSLTCAVSGHSISHDHAWSWVRQPPGEGLEWIGFISYSGITNYNPSLQGRVTISRDNSKNTLYLQMNSLRAEDTAVYYCARSLARTTAMDYWGEGTLVTVSSASTKGPSVFPLAPSSKSTSGGTAALGCLVKDYFPEPVTVSWNSGALTSGVHTFPAVLQSSGLYSLSSVVTVPSSSLGTQTYICNVNHKPSNTKVDKKVEPKSCDKTHTCPPCPAPELRGGPKVFLFPPKPKDTLYITREPEVTCVVVDVSHEDPEVKFNWYVDGVEVHNAKTKPREEQYNSTYRVVSVLTVLHQDWLNGKEYKCKVSNKALPAPIEKTISKAKGQPREPQVYTLPPSRDELTKNQVSLTCLVKGFYPSDIAVEWESNGQPENNYKTTPPVLDSDGSFFLYSKLTVDKSRWQQGNVFSCSVMHEALDYHTTKKELSLSP
light: not shown
notes: as for B4
Regarding B13, in the experiment with human FcRn [6], the Kd was 251 nM.

B14: IgG1-F1311 (antibody, name in EU numbering)
heavy: B13 heavy with T256S, E258T, V424A, S426A, T438V, K440Q, E442S
light: not shown
notes: as for B4
In turn, B14 yielded a Kd in the experiment with human FcRn [10] of 169 nM.

B15: IgG1-F1039 (antibody, name in EU numbering)
heavy: B1 heavy with L237K, P240D, S241K, V252T, Q309T, P310V, A313Q
light: not shown
As for B15, in experiment [11], binding was characterised by a dissociation constant (Kd) of 130 nM.

B16: F1211 (antibody, human IgG1, kappa, name in EU numbering)
heavy: B1 heavy with V252T, L253H, Q309T, P310V, A313Q
light: not shown
notes: copies: 2 + 2
For the molecule B16, the affinity in the experiment with human FcRn [12], expressed as Kd, was 1230 nM.

B17: IgG1-F1289 (antibody, name in EU numbering)
heavy: B13 heavy with T256S, T438V, K440R
light: not shown
notes: as for B4
On to B17, for which, in the experiment with human FcRn [10], the affinity, expressed as Kd, was 133 nM.

B18: IgG1-F197 (antibody, name in EU numbering)
heavy: B1 heavy with V252T, Y254M, P259T, P310V, A313Q, M430L, V438Y
light: not shown
notes: as for B3
For the molecule B18, the Kd in [5] turned out to be 33 nM.

B19: F1189 (antibody, name in EU numbering)
heavy: B13 heavy with R237L, K241S, T256S, E258T, T438V, K440R
light: not shown
notes: copies: 2 + 2
In turn, B19 registered a dissociation constant Kd with human FcRn [12] of 157 nM.

B20: F1192 (antibody, name in EU numbering)
heavy: B1 heavy with V252T, Q309T, P310V, A313Q, T439G, Q440R, S442E
light: not shown
notes: copies: 2 + 2
Regarding B20, in the experiment with human FcRn [12], the affinity, expressed as Kd, was 127 nM.

B21: IgG1-F1288 (antibody, name in EU numbering)
heavy: B13 heavy with T256S, D435H, T438V, E442D
light: not shown
notes: as for B4
As for B21, the affinity with human FcRn [10], expressed as Kd, was 79.5 nM.

B22: IgG1-F1340 (antibody, name in EU numbering)
heavy: B13 heavy with D435H, T438V
light: not shown
notes: as for B4
As for B22, the dissociation constant (Kd) with human FcRn [6] was determined as 55.8 nM.

B23: IgG1-F1369 (antibody, name in EU numbering)
heavy: B13 heavy with D435H, T438F, K440R
light: not shown
notes: as for B4
In turn, B23 returned a Kd with human FcRn [8] of 76 nM.

B24: IgG1-F1031 (antibody, name in EU numbering)
heavy: B1 heavy with G238A, S241D, P310V, I334E
light: not shown
As to B24, in experiment [11], binding was put at a Kd of 53 nM.

B25: IgG1 (IL6R-G1d / IL6R-L) (antibody)
heavy: not shown
light: DIQMTQSPSSLSASVGDRVTITCRASQDISSYLNWYQQKPGKAPKLLIYYTSRLHSGVPSRFSGSGSGTDFTFTISSLQPEDIATYYCQQGNTLPYTFGQGTKVEIK
notes: Anti-human IL-6 receptor antibody; G1d constant region (IgG1 without C-terminal Gly and Lys); L chain of tocilizumab
For the molecule B25, the Kd with human FcγRIIIa(F) [13] was 3100 nM.

B26: IgG1-v3 (IL6R-G1d_v3 / IL6R-L) (antibody)
heavy: not shown
light: B25 light
notes: IL6R-G1d with S267E/L328F (EU numbering)
As for B26, the Kd with human FcγRIIIa(F) [13] was found to be 8800 nM. For the same molecule, in the experiment with human FcγRIIIa(F) [14], the “relative KD (KD of IgG1 / KD of the variant)” value came to 0.35 fold.

B27: IgG1-v1 (IL6R-G1d_v1 / IL6R-L) (antibody)
heavy: not shown
light: B25 light
notes: IL6R-G1d with P238D (EU numbering)
As to B27, the Kd with human FcγRIIIa(F) [15] is 51000 nM. Moreover, in the experiment with human FcγRIIIa(F) [14], the “relative KD (KD of IgG1 / KD of the variant)” value worked out at 0.061 fold.

B28: IgG1-v2 (IL6R-G1d_v2 / IL6R-L) (antibody)
heavy: not shown
light: B25 light
notes: IL6R-G1d with L328E (EU numbering)
B28: the Kd with human FcγRIIIa(F) [15] was 23000 nM. For the same molecule, the “relative KD (KD of IgG1 / KD of the variant)” value with human FcγRIIIa(F) [14] worked out at 0.14 fold.

Values taken from patent publication US20140105889A1 (published 2014).
